Test results published in the nanobody polyreactivity screen of Harvey et al. (2022).

Assay: yeast display, Sf9 membrane polyspecificity reagent, FACS + sequencing; frameworks hold sequencing errors
Method in brief: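 Galactose-induced (36–48 hours) yeast carrying a synthetic nanobody display library were exposed to 10% biotinylated, detergent-solubilized Sf9 membrane reagent at 4 °C for 1 hour. FACS followed streptavidin microbead enrichment, using low and high (top ~1%) gates for expression (anti-HA) and reagent binding (streptavidin). Colony PCR, MiSeq 2 × 250 sequencing and CDR-length filtering followed. Labels for polyreactivity reflect the gate of origin.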

Row | Sequence | polyreactivity (PSR sort gate)
1 | QVQLVESGGGLVQAGGSLRLSCAASGRIFVIYAMGWYRQAPGKERELVAVINDDGSTNYADSVKGRFTISRDNAKNTVYLQMNSLKPEDTAVYYCAARGGRPLIHHWPWYSWKYDYWGQGTQVTVSS | low polyreactivity
2 | QVQLVESGGVLVQAGGSLRLSCAASRSTFTSYAMGWSRQAPGKERELVADISFSGGSTYYADSVKGRFTISRDIAKNSVYSQMNRLTPEDTAVYSCAARIYKRYYWGQGTQVTVSS | high polyreactivity
3 | QDQLVEAGGGLVQAGGSLRLSCAASGFIFSRNAMGWYRQAPGKEGELVAAISSTGGITYYADSVKGRFSISRDNAKNTVYLQLTSLKPEDTAVYFCAAGFYGYARHTWYNYWGQGTQVTVSS | high polyreactivity
4 | QVQFVESGGGLVQARCSLRLSCAASGFIFGVYAMGWYRQAPGKERELVAAINSGGGSTYYADSVKGRFTISRDNAKNTVYLQMNSLKPEDTAVYYCAVRYKSWYGFNYWGQGTQVTVSS | high polyreactivity
5 | QFQLVESGGGLVQAGGSLRLSCAASGSTFGYYAMGWYRQAPGKERELVAAISWSGDSTYYADSVKGRFSISRDNAKNTVYLQMNSLKPEDTAVYYCAAEVEYGYDYWGQGTQVTVSS | high polyreactivity
6 | QVQLVESGGGLVQAGGSLRLSCAASGFTFGSYAMGWYRQAPGKERELVAAITYSGSRTYYADSVKGRFTISRDNAKNTVYLQMNSLKPEDTAVYYCAAVTHYGFDYWGQGTQVTVSS | high polyreactivity
7 | QVQLVDSGGGLVQAGGSLRLSCAASGTIILVYAMGWYRQAPGKERELVARITNGTGSTYYADSVKGRFTISRDNAKNTVYLQMNSLKPEDTAVYYCATGQGSSYRSGPRWYPNAFGYWGQVTQVTVSS | high polyreactivity
8 | QVQLVESGGGLVQAGGSLRLSCAPSGIIFAYYAKGWYRQAPVKERELVASISSGGTTKYADSVKGRFTISRDNAKNTVYLQMNSLKPEDTAVYYCAAEHRWRSWDMDYWGQGTQVTVSS | low polyreactivity
9 | QVQLVESGGGLVQAGGPLRLSCAASGRIFWPYTMGWYRQTPGKERELVAVITYSGGSTYYADSVKGRFTISRDNAKNTVYFQMNSLKPEDTAVYYCNAGIRFYLHAHGYYWGQGTQVTVSS | high polyreactivity
10 | QVQLVESGGGLVQAGGSLRLSCAASARTFSAYAMGWYRPAPGKERELVARITSVDSTNYADSVKGRFTISRDNAKNTVYLQMNSLKPEDTAVYYCNATFGYPFVDYDDYWGQGTQVTVSS | low polyreactivity
11 | QVQLVESGGGLVQAGGSLRLSCAASGRTFYYAMGWYRQAPVKERYADSVKGRFTISRDNAKNTVYLQMNSLKPEDTAVYYCAAKVPEPPSLDESDYWGQGTQVTVSS | low polyreactivity
12 | QVQLVESGGGLVQAGGSLRLSCAASGSTFIYNALGWYRQAPGKERELVAAISSGGSTYYADSVKGRFTISRDNAKNSVYLQMNSLKPEDTAVYYCAAKGFPRSGYPYQAQHMYYWGQGTQVTVSS | low polyreactivity
13 | QVQLVESGGGLVQAGGSLRLSCAASGFTFKQNAMGWYRQAPGKERELVAAISSSGRTNYADSVKGRFTISRDNAKNTVYLQMNSLKPEDTAVYYCAAATYNAYGRRSRYYHGYNSWGQGTQVTVSS | high polyreactivity
14 | QVQLVESGGGLVQAGGSLRLSCAASGRIFGVNTMGWYRQEPGKEREMVAVIRESDGSTYYADSVKGRFTISRDNAKNTVYLQMNSLKPEDTAVYYCAKDWYRSPSTYEWNSQYGYWGQGTQVTVSS | low polyreactivity
15 | QVQLVESGGGLVQAGGSLRLSCAASGRIFYEYASGWYRQAPGKERELVAISTSGGNTYYADSVKGRFTISRDNAKNTVYLQMNSLKPDDTAVYYCAARLQYYPYYYWGQGTQVTVSS | high polyreactivity
16 | QVQLVESGGVLLQGGGSLRLTWAASGGIFTDYTIRSYRQAPGKERELVADITWTGGSTYYPDSVKGRFTISRDNAKNTVYLQMNSLKPEDTAVYYCAADDYWVNLDYWGQGTQVTVSS | low polyreactivity
17 | QVQLVESGGGLVQAGGSLRLSCAASGNTTPVNAMGWYRQAPGKERQLVAAITQSGGSTYYADSVKGRFTISRDNAKNTVYLQMNSLKPEDTAVYYCAADYGHYYGLYYWGQGTQVTVSS | low polyreactivity
18 | QVQLVESGGGLVQAGGSLRLSCAASGRIFSRYVMGWYRQAPGKEREFFASITWSGSSTYYADSVKGRFTISRDNAKNTVYLQMNSLKPEDTAVYYCAALGLLSPSPCGTHISEYDSWGQGTQVTVSS | low polyreactivity
19 | QVQLVESGGGLVQAGGSLRLSCAASGSIFPYNAMGWYRQAPGKERELVAAIRFGGGSTYYSDSVKGRFTISRDNAKNTVYLQMNSLKPEDTAVYYCAAQVLQSAYLPFRFGYYYWGLGTQVTVSS | low polyreactivity
20 | QVQLVESWGGLVQAGGSLRLSCAASGYTIPDNAMGWYRQAPGKEREWVATITSGASTYYADSVKGRFTSSRDNAKNTVYLQMNSLNPEDTAVYYFARDPWALGGIGSDQKYDYWGQGTQVTVSS | low polyreactivity
21 | QVQLVESGGGLVQAGGSLRLSCAASGGNFGRYAMGWYRQAPGKERELVADINWSGGANTNYADSVKGRFTISRDNAKNTVYLQMNSLKPEDTAVYYCAAPSYFTHSGRFDYWGQGTQVTVSS | low polyreactivity
22 | QVQLVESGGGLVQEGGSLRLSCAASGSTFTTNVMGWYRQAPGKERELVAAISWSSGSTYYADSVTGRFTISRDNAKNTVYLQMNSLKPEDTAVYYCAARLVIFYPYSRYYYWGQGTQVTVSS | high polyreactivity

Row | Sequence | polyreactivity (PSR sort gate)
23 | QVQLVESGGGLVQAGGSLRLSCAASGITLQFYAIGWYRQAPGKERELVAAISISGGRTYYADSVKGRFTISRDNAKNTVYLQMNSLKPEDTAVYYCAAYLQRAYRYGYWGQGTQVTVSS | high polyreactivity
24 | QIHLVESGGGLVQAGGSLRLSCAASGGIFYINAMGWYRQAPGKEREFVAAITESSDITYYADSVKGRFTISRDNAKNTVYLQMNSLKPEDSAVYYCAAEFVRSGDDYWGQGTQVTVSS | low polyreactivity
25 | QVQLVESGGGLVQAGGSLRLSCAASGSIFRYNAKGWYRQAPGKERELVAARRSRGGSTNYADSVKGRFTISRDNAKNTVYLQMNSLKPEDNAVYFCAADGSYTKTTIYIFGGLDFWGQGTQVTVSS | low polyreactivity
26 | QVHLVETGGGLVQAGGSLRLSCAASGRTFYVNAMGWYRQAPWKERELVARITSGGSTYYADSVKGRFTISRDNAKNTVYLQMNSLKPEDTAVYYCAKKYIGYQVWIHSTRRYDYWGHGTQVTVSS | low polyreactivity
27 | QVQLVESGGGLVQAGGSLRLSCAASGLTFVANAMGWYRQAPGKERELVAAIDYGGGHTYYADSVKGRFTISRDYAKNTVYLQMNSLKPEDTAVYYCAVGLPHGGRRLYGSWYRFDYWGQGTQVTVSS | low polyreactivity
28 | QVQLVESGGGLVQAGGSLRISCAPSGSIFESNAMGWYRQAPGKERELVADITYRGTRTYYADSVKGRFTISRDNAKNTVYLQMNSLKPEDTAVYYCAVWQDHYDWGQGTQVTVSS | low polyreactivity
29 | QVQLVESGGGLVQAGGSLRLSCSSSGRIFLNSMGWYRQAPGKEREFVAAITRSADSTYYADSVKGRFTISRDNAKNTVYLQMNSLKPEDTAVYYCNKPFPYYPDGPNGYDYWGHGTQVTVSS | low polyreactivity
30 | QVQIVESGGGLVQAGGSLRLSCAASGITLSYNAMGWYRPATEKDRELVAGISYSGGRTYYADSVKGRFTISRDNAKNTVYLQMYSLKPEVTAVYYCATDLYISFRYGGYFWGQGTQVTVSS | high polyreactivity
31 | QVQLVESGGGLVQAGGSLRLSCAASGFTFYYYAMGWYRQAPGKERELVASISWRGGSTYYADSVKGRFTISRDNAKNTVYLQMNSLKPEDTAVFYCAAQKRGSPGYRRDYWGQGTQVTVSS | high polyreactivity
32 | QVQLVESGGGLVQAGGSLRLSCAASGFIFTYYGMGWYRQAPGKERELVAAITWSGASTYYADSVKGRFTISRDNAKNTVYLQMNSLKPEDTAVYYCNAGWDSGIVQSDETVYKYDYWGQGTQVTVSS | low polyreactivity
33 | QVQLVESGGGLVQAGGSLRLSCAASGFTFEKYAMGWYRQAPGHERELVASISWSGGRTRYADSVKGRFTISRDNAKNTVYLQMNSLTPEDTAVDYCAASYRYFGRSTVRYDYWGQGTQVTVSS | high polyreactivity
34 | QVQLVQSGGGLVQAGGSLRLSCAASGYIFNFNPMGWNRQAPGKERELVAVISDRDDTTYYADSVKGRFTISRDNAKNTVYLQMNSMKPEDTAVYYCAAVGDTYVDDQYDYWGQGTQVTVSS | low polyreactivity
35 | QVQLVESGGGLVQAGGSLRLICAASGSTFYRYAMGWYRQAPGKERELVAAISSSGGSTYYADSVKGRFTISRDIAKNTVYLQMNSLKPEDTAVYYCNRYGSGHSFIYDYWGQGTQVTLSS | high polyreactivity
36 | QVQLVESGGGLVQAGGSLRLSCAASGFTFIDYAMGWYRQAPGKERELVAAISKRGGSTYYADSVKGRFTISRDNAKNSVYLQMNSLKPEDTAVYYCNAKAYHQGYLTRDDYWGQGTQVTVSS | high polyreactivity
37 | QVQLVESGGGLVQAGGSLRLSCAASGRIFGGYAMGWYRQAPGKERELVAVITDGGSTNYADSVKGRFTISRDNAKNTVYLQMNSLKPEDTAVYYCAADDRIYPRGYDKMDYWGQGTQVTVSS | low polyreactivity
38 | QVQLVYSGGGLVQAGGSLRISCAPSGRTYRKYAMGWYIQAPGKERELVAANSRSGGSTYYANSVKGRFTISRDIAKNTFYLQMNSLKPDDTAVYYCAAVPVHTGSLYWGFTTGYDYWGQVTQVTVSS | low polyreactivity
39 | QVQLVESGGGLVQAGGSLRLSCAASGSTFGENAMGWYRQAPGKERELVAAISDSGGDTYYADSVKGRFTISRDNAKNTVYLQMNSLKPEDTAVYYCAADRYGYWYAYYSWGQGTQVTVSS | low polyreactivity
40 | QVQLVESGGGLVQAGGSLRLSCAASGRTFRYYAMGWYRQAPGKERELVASISSSGSTNYADSVKGRFTISRDNAKNTVYLQMNSLKPEDTAVYYCAAESRYPFIYEYWGQGTQVTVSS | low polyreactivity
41 | QVQLVESGGGLVQAGGSLRLSCAASGSIFKSNGMGWYRQAPGKERELVAAITGSGGTTYYADSVKGRFTISRDNAKNTVYLQMNSLKPEDTAVYYCAADIYWYPTYYYWGQGTQVTVSS | low polyreactivity
42 | QVQLVESGGGLVQAGGSLRLSCAASGRTFPYNDMGWYRQAPGKERQLVAGISLSGGSTFYADSVKGRFTISRDNAKKTVYLQRNSLKAEDTAVYYCNAPGGRYVWTDDYDYWGQGTQVTVSS | high polyreactivity
43 | QVQLVESGGGLVQAGGSLRLSCAASGSIFIGNTMGWYRQAPGKERELVATIRRSGSRTYYADSVKGRFTISRDNAKNTVYLQLNSLKPEDTAVYYCAADRLRSSGYKTIYDYWGQGTQVTVSS | low polyreactivity
